# Results reported in paper PMC4526461 (The Biochemical journal, 2015).
# Positions count from the first letter of the chain named. Where “and” joins values, the source holds several entries; their conditions need not be identical. Equal values may be shown once.
# B1: recombinant mouse neutral sphingomyelinase-2 with C-terminal FLAG and 6xHis tags (pET-32a-nSMase-2-FLAG-6xHis), expressed in Rosetta2 (DE3) pLysS (enzyme, UniProt Q9JJY3 1-655, looked up)
# chain: MVLYTTPFPNSCLSALHAVSWALIFPCYWLVDRLLASFIPTTYEKRQRADDPCCLQLFCTVLFTPVYLALLVAALPFAFLGFIFWSPLQSARRPYSYSRLEDKNPAGGAALLSEWKGTGAGKSFCFATANVCLLPDSLARLNNVFNTQARAKEIGQRIRNGAARPQIKIYIDSPTNTSISAASFSSLVSPQGGDGSRAVPGSIKRTASVEYKGDGGRHPSDEAANGPASGEQADGSLEDSCIVRIGGEEGGRPQEADDPAAGSQARNGAGGTPKGQTPNHNQRDGDSGSLGSPSASRESLVKARAGQDSGGSGEPGANSKLLYKTSVVKKAAARRRRHPDEAFDHEVSAFFPANLDFLCLQEVFDKRAAAKLKEQLHGYFEYILYDVGVYGCHGCCNFKCLNSGLFFASRYPVMDVAYHCYPNGCSFDALASKGALFLKVQVGSTPQDQRIVGYIACTHLHAPPEDSAVRCEQLDLLQDWLADFRKSTSSTSTANPEELVVFDVICGDLNFDNCSSDDKLEQQHSLFTRYKDPCRLGPGEEKPWAIGTLLDTNGLYDEDVCTPDNLQKVLESEEGRREYLAFPTSKSPGAGQKGRKDLLKGNGRRIDYMLHAEEGLCPDWKAEVEEFSFITQLSGLTDHLPVAMRLMVSAGEEEA
# B2: nSMase-2 single-point mutant Cys617Ser (enzyme, mouse, UniProt Q9JJY3 1-655, looked up)
# chain: B1 chain with C617S
# B3: nSMase-2 single-point mutant Cys561Ser (enzyme, mouse, UniProt Q9JJY3 1-655, looked up)
# chain: B1 chain with C561S
# Target: the molecule itself
# Assay: non-reducing SDS/PAGE and Western blot
Protein,stoichiometry N,decrease in multimer to monomer ratio against wild-type [%]
B1,2 and 3,–
B2,–,~50
B3,–,~50
